Consider four substances from US20250368729A1.

For assay [1], the target named is KEN hATTR amyloid extract (human) (UniProt P02766). The assay is described as follows: EuLISA, substrate coated on plate.
Assay [2] addresses Per125 wtATTR amyloid extract (human) (UniProt P02766). The assay is described as follows: EuLISA, substrate coated on plate.
In assay [3] the target is TAL ALκ liver amyloid extract. In words: EuLISA, substrate coated on plate.
Assay [4] addresses SHI ALλ liver amyloid extract. The assay is described as follows: EuLISA, substrate coated on plate.
For assay [5], the target named is synthetic amyloid-like fibrils of recombinant amyloidogenic λ6 variable domain protein (rVλ6Wil). In words: EuLISA, substrate coated on plate.
The target in assay [6] is KEN hATTR amyloid extract (human) (UniProt P02766). The assay is described as follows: pulldown, labelled antibody.
Assay [7] addresses SNO hereditary (h) ATTR amyloid extract (human) (UniProt P02766). In words: pulldown, labelled antibody.
Another assay deals with hIAPP fibril (UniProt P10997). The assay is described as follows: pulldown of 125I-labelled antibody with the substrate pellet.
In assay [8] the target is Aβ(1-40) amyloid-like fibrils (UniProt P05067). Described as above.

As usually defined, the EC50 is the concentration at which the effect is half-maximal.

Chain of hIAPP fibril (P10997 34-70 limits assumed): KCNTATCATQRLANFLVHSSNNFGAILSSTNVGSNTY
Chain of Aβ(1-40) amyloid-like fibrils (P05067 672-711 limits assumed): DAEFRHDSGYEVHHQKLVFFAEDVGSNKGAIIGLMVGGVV

Regarding chimeric (c) 11-1F4 (antibody), in assay [1], the LogEC50 is -1.36 and the Max (maximal level of binding) was 19700.
As for hIgG1 control (antibody), the LogEC50 in assay [2] was 7.92 -log(M); in assay [3], 3 -log(M); in [4], 7.88 -log(M); in assay [1] it was 9.06 -log(M); in [5] it was 5.89 -log(M). Moreover, the Max (maximal level of binding) is 8.38 in assay [2]; 2220 in assay [3]; 2.5 in assay [4]; -0.8 in [1]; 39.3 in assay [5]. The half-maximal effective concentration (EC50) in [5] was determined as 1280 nM.
The substance “murine Ig-peptide fusion Igp5 (murine 11-1F4 with peptide p5 fused to the N-terminus of the light chain) (antibody)” gave a percent bound in assay [6] of 15%. Further, in assay [7], the percent bound worked out at 12%. Besides, in assay [1], the EC50 was determined as 3.56 nM, the LogEC50 is 8.45 -log(M) and the Max (maximal level of binding) came to 19.9.
Turning to murine antibody m11-1F4, the values for the bound to substrate (pulldown) (with hIAPP fibril; in assay [8]) were 5.1% and 4.6%, respectively. The LogEC50 in [1] was 2.39. Further, the Max (maximal level of binding) in [1] stood at 294000.
